Reference: paper PMC4046702 (Journal of inorganic biochemistry, 2013)

B1: CODD peptide, HIF-1α 556-574 (M561A, M568A) (peptide)
peptide: DLDLEALAPYIPADDDFQL
B2: NODD peptide, HIF-1α 395-414 (F413Y) (peptide)
peptide: DALTLLAPAAGDTIISLDYG

Molecular target: HIF prolyl-4-hydroxylase 2 (PHD2), residues 178-426 (human, UniProt Q9GZT9 178-426)
Experiment: cell-based or functional assay

Chain of HIF prolyl-4-hydroxylase 2 (PHD2), residues 178-426 (Q9GZT9 178-426): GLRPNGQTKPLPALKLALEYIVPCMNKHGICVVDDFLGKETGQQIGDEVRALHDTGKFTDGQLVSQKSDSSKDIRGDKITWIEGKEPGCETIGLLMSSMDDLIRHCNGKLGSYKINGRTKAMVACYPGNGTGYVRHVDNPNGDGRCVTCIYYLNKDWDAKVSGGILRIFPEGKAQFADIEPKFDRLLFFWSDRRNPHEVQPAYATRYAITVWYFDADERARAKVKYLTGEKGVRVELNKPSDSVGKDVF

| Binder | kcat/KM of CODD hydroxylation by PHD2 (steady-state, MALDI-TOF), 0 mM NaCl [M⁻¹ s⁻¹] | kcat/KM of CODD hydroxylation by PHD2 (steady-state, MALDI-TOF), + 100 mM NaCl [M⁻¹ s⁻¹] | kcat/KM of NODD hydroxylation by PHD2 (steady-state, MALDI-TOF), 0 NaCl [M⁻¹ s⁻¹] | kcat/KM of NODD hydroxylation by PHD2 (steady-state, MALDI-TOF), + 100 mM NaCl [M⁻¹ s⁻¹] |
| --- | --- | --- | --- | --- |
| B1 | 16700 | 5000 | – | – |
| B2 | – | – | 667 | 833 |
